± gives the uncertainty stated by the source.

Consider 60 variants from the Human Domainome abundance scans (Beltran et al. 2025).

The labels stand for the following.
B1: Chromodomain-helicase-DNA-binding protein 7, residues 2564 to 2605; numbered along this chain, Q9P2D1 (parent)
chain: DPDTRIPVINLEDGTRLVGEDAPKNKDLVEWLKLHPTYTVDM

The data set covers variants of B1. Kind of data set: abundance fitness (aPCA) (normalised: wild type 0, dead -1); higher = more abundant; growth selection in yeast, the domain comes from the species named. Particulars: Homo sapiens.
In the case of DPDTRIPKINLEDGTRLVGEDAPKNKDLVEWLKLHPTYTVDM [V8K], the abundance fitness is -0.387 ± 0.17.

On to DPDTRIPRINLEDGTRLVGEDAPKNKDLVEWLKLHPTYTVDM [V8R], for which the abundance fitness is -0.624 ± 0.15.

Regarding DPDTRIPWINLEDGTRLVGEDAPKNKDLVEWLKLHPTYTVDM [V8W], the abundance fitness was -0.794 ± 0.15.

In the case of DPDTRIPIINLEDGTRLVGEDAPKNKDLVEWLKLHPTYTVDM [V8I], the abundance fitness was -0.433 ± 0.45.

As for DPDTRIPFINLEDGTRLVGEDAPKNKDLVEWLKLHPTYTVDM [V8F], the abundance fitness is -0.869 ± 0.089.

For the variant DPDTRIPNINLEDGTRLVGEDAPKNKDLVEWLKLHPTYTVDM [V8N], the abundance fitness is -0.578 ± 0.13.

As to DPDTRIPYINLEDGTRLVGEDAPKNKDLVEWLKLHPTYTVDM [V8Y], the abundance fitness is -0.894 ± 0.12.

Take DPDTRIPHINLEDGTRLVGEDAPKNKDLVEWLKLHPTYTVDM [V8H]: the abundance fitness is -0.577 ± 0.11.

In the case of DPDTRIPPINLEDGTRLVGEDAPKNKDLVEWLKLHPTYTVDM [V8P], the abundance fitness was -0.534 ± 0.075.

On to DPDTRIPCINLEDGTRLVGEDAPKNKDLVEWLKLHPTYTVDM [V8C], for which the abundance fitness was -0.577 ± 0.27.

As for DPDTRIPEINLEDGTRLVGEDAPKNKDLVEWLKLHPTYTVDM [V8E], the abundance fitness is -0.516 ± 0.11.

Take DPDTRIPVINLEDGTGLVGEDAPKNKDLVEWLKLHPTYTVDM [R16G]: the abundance fitness is -0.4 ± 0.053.

DPDTRIPVINLEDGTMLVGEDAPKNKDLVEWLKLHPTYTVDM [R16M]: the abundance fitness was found to be 0.502 ± 0.24.

As for DPDTRIPVINLEDGTALVGEDAPKNKDLVEWLKLHPTYTVDM [R16A], the abundance fitness was -0.039 ± 0.067.

Turning to DPDTRIPVINLEDGTWLVGEDAPKNKDLVEWLKLHPTYTVDM [R16W], the abundance fitness was -0.173 ± 0.069.

Take DPDTRIPVINLEDGTQLVGEDAPKNKDLVEWLKLHPTYTVDM [R16Q]: the abundance fitness was -0.23 ± 0.43.

For DPDTRIPVINLEDGTLLVGEDAPKNKDLVEWLKLHPTYTVDM [R16L], the abundance fitness was -0.077 ± 0.39.

With DPDTRIPVINLEDGTSLVGEDAPKNKDLVEWLKLHPTYTVDM [R16S], the abundance fitness came to 0.132 ± 0.047.

Turning to DPDTRIPVINLEDGTHLVGEDAPKNKDLVEWLKLHPTYTVDM [R16H], the abundance fitness stood at 0.071 ± 0.077.

Turning to DPDTRIPVINLEDGTCLVGEDAPKNKDLVEWLKLHPTYTVDM [R16C], the abundance fitness amounted to 0.154 ± 0.069.

As for DPDTRIPVINLEDGTNLVGEDAPKNKDLVEWLKLHPTYTVDM [R16N], the abundance fitness is -0.128 ± 0.12.

For DPDTRIPVINLEDGTVLVGEDAPKNKDLVEWLKLHPTYTVDM [R16V], the abundance fitness came to 0.059 ± 0.072.

As for DPDTRIPVINLEDGTKLVGEDAPKNKDLVEWLKLHPTYTVDM [R16K], the abundance fitness was 0.06 ± 0.17.

For the variant DPDTRIPVINLEDSTRLVGEDAPKNKDLVEWLKLHPTYTVDM [G14S], the abundance fitness was -0.141 ± 0.071.

With DPDTRIPVINLEDATRLVGEDAPKNKDLVEWLKLHPTYTVDM [G14A], the abundance fitness is -0.115 ± 0.08.

As to DPDTRIPVINLEDTTRLVGEDAPKNKDLVEWLKLHPTYTVDM [G14T], the abundance fitness was -0.275 ± 0.14.

Turning to DPDTRIPVINLEDWTRLVGEDAPKNKDLVEWLKLHPTYTVDM [G14W], the abundance fitness is -0.084 ± 0.29.

For the variant DPDTRIPVINLEDCTRLVGEDAPKNKDLVEWLKLHPTYTVDM [G14C], the abundance fitness is -0.226 ± 0.22.

DPDTRIPVINLEDLTRLVGEDAPKNKDLVEWLKLHPTYTVDM [G14L]: the abundance fitness was -0.424 ± 0.089.

Consider DPDTRIPVINLEDFTRLVGEDAPKNKDLVEWLKLHPTYTVDM [G14F], for which the abundance fitness was -0.277 ± 0.16.

For the variant DPDTRIPVINLEDMTRLVGEDAPKNKDLVEWLKLHPTYTVDM [G14M], the abundance fitness turned out to be 0.114 ± 0.071.

With DPDTRIPVINLEDDTRLVGEDAPKNKDLVEWLKLHPTYTVDM [G14D], the abundance fitness was -0.146 ± 0.14.

As to DPDTRIPVINLEDETRLVGEDAPKNKDLVEWLKLHPTYTVDM [G14E], the abundance fitness is -0.012 ± 0.09.

On to DPDTRIPVINLEDQTRLVGEDAPKNKDLVEWLKLHPTYTVDM [G14Q], for which the abundance fitness came out at 0.007 ± 0.11.

Consider DPDTRIPVINLEDNTRLVGEDAPKNKDLVEWLKLHPTYTVDM [G14N], for which the abundance fitness turned out to be 0.152 ± 0.1.

Take DPDTRIPVINLEDRTRLVGEDAPKNKDLVEWLKLHPTYTVDM [G14R]: the abundance fitness was -0.168 ± 0.074.

As for DPDTRYPVINLEDGTRLVGEDAPKNKDLVEWLKLHPTYTVDM [I6Y], the abundance fitness is -0.699 ± 0.21.

For DPDTRNPVINLEDGTRLVGEDAPKNKDLVEWLKLHPTYTVDM [I6N], the abundance fitness is -0.419 ± 0.31.

Regarding DPDTRVPVINLEDGTRLVGEDAPKNKDLVEWLKLHPTYTVDM [I6V], the abundance fitness was found to be 0.262 ± 0.1.

As to DPDTRSPVINLEDGTRLVGEDAPKNKDLVEWLKLHPTYTVDM [I6S], the abundance fitness was -0.189 ± 0.44.

Regarding DPDTRIPVINDEDGTRLVGEDAPKNKDLVEWLKLHPTYTVDM [L11D], the abundance fitness stood at 0.067 ± 0.095.

For DPDTRIPVINTEDGTRLVGEDAPKNKDLVEWLKLHPTYTVDM [L11T], the abundance fitness is 0.353 ± 0.067.

Consider DPDTRIPVINSEDGTRLVGEDAPKNKDLVEWLKLHPTYTVDM [L11S], for which the abundance fitness stood at 0.193 ± 0.053.

For DPDTRIPVINGEDGTRLVGEDAPKNKDLVEWLKLHPTYTVDM [L11G], the abundance fitness came out at 0.094 ± 0.064.

As to DPDTRIPVINFEDGTRLVGEDAPKNKDLVEWLKLHPTYTVDM [L11F], the abundance fitness worked out at 0.015 ± 0.13.

Turning to DPDTRIPVINMEDGTRLVGEDAPKNKDLVEWLKLHPTYTVDM [L11M], the abundance fitness is 0.355 ± 0.16.

Regarding DPDTRIPVINREDGTRLVGEDAPKNKDLVEWLKLHPTYTVDM [L11R], the abundance fitness was -0.104 ± 0.084.

Turning to DPDTRIPVINYEDGTRLVGEDAPKNKDLVEWLKLHPTYTVDM [L11Y], the abundance fitness stood at 0.064 ± 0.099.

Consider DPDTRIPVINEEDGTRLVGEDAPKNKDLVEWLKLHPTYTVDM [L11E], for which the abundance fitness is 0.058 ± 0.077.

For DPDTRIPVINHEDGTRLVGEDAPKNKDLVEWLKLHPTYTVDM [L11H], the abundance fitness is 0.293 ± 0.073.

DPDTRIPVINNEDGTRLVGEDAPKNKDLVEWLKLHPTYTVDM [L11N]: the abundance fitness was 0.242 ± 0.071.

As for DPDTRIPVINKEDGTRLVGEDAPKNKDLVEWLKLHPTYTVDM [L11K], the abundance fitness was determined as 0.005 ± 0.11.

Consider DPDTRIPVINCEDGTRLVGEDAPKNKDLVEWLKLHPTYTVDM [L11C], for which the abundance fitness was -0.195 ± 0.11.

Consider DPDTRIPVINIEDGTRLVGEDAPKNKDLVEWLKLHPTYTVDM [L11I], for which the abundance fitness was found to be 0.214 ± 0.085.

As to DPDTRIPVINLELGTRLVGEDAPKNKDLVEWLKLHPTYTVDM [D13L], the abundance fitness is -0.627 ± 0.27.

Turning to DPDTRIPVINLEHGTRLVGEDAPKNKDLVEWLKLHPTYTVDM [D13H], the abundance fitness is -1.01 ± 0.3.

Turning to DPDTRIPVINLEGGTRLVGEDAPKNKDLVEWLKLHPTYTVDM [D13G], the abundance fitness is -0.268 ± 0.078.

As to DPDTRIPVINLEVGTRLVGEDAPKNKDLVEWLKLHPTYTVDM [D13V], the abundance fitness is -0.421 ± 0.071.

In the case of DPDTRIPVINLENGTRLVGEDAPKNKDLVEWLKLHPTYTVDM [D13N], the abundance fitness came to 0.046 ± 0.087.

As for DPDTRIPVINLEAGTRLVGEDAPKNKDLVEWLKLHPTYTVDM [D13A], the abundance fitness was -0.183 ± 0.18.
